Experiment [1] concerns the target CD79b CAR with CD8α hinge as the spacer. The experiment is described as follows: flow cytometry, NK cell line-2 transduced with CD79b CAR construct 441HL at MOI 20, AF647-CD79b at 1 µg/ml; same gate on untransduced (UTD) cells 0.32.
For experiment [2] the target is unchanged. The experiment is described as follows: flow cytometry, NK cell line-2 transduced with CD79b CAR construct 137LH at MOI 20, AF647-CD79b at 1 µg/ml; same gate on untransduced (UTD) cells 0.32. In general terms: In flow cytometry, cells or beads pass a laser one at a time.
Experiment [3] shares this target. The experiment is described as follows: flow cytometry, NK cell line-1 transduced with CD79b CAR construct 137LH at MOI 5, AF647-CD79b at 1 µg/ml; same gate on untransduced (UTD) cells 0.23.
The target is the same in experiment [4]. The experiment in a line: flow cytometry, NK cell line-2 transduced with CD79b CAR construct 441HL at MOI 5, AF647-CD79b at 1 µg/ml; same gate on untransduced (UTD) cells 0.32.
For experiment [5] the target is unchanged. The experiment is described as follows: flow cytometry, NK cell line-2 transduced with CD79b CAR construct 137LH at MOI 5, AF647-CD79b at 1 µg/ml; same gate on untransduced (UTD) cells 0.32.
The target is the same in experiment [6]. The experiment in a line: flow cytometry, NK cell line-1 transduced with CD79b CAR construct 441HL at MOI 20, AF647-CD79b at 1 µg/ml; same gate on untransduced (UTD) cells 0.23.
Experiment [7] has the same target. The experiment in a line: flow cytometry, NK cell line-1 transduced with CD79b CAR construct 441HL at MOI 5, AF647-CD79b at 1 µg/ml; same gate on untransduced (UTD) cells 0.23.
Experiment [8] has the same target. The experiment in a line: flow cytometry, NK cell line-1 transduced with CD79b CAR construct 137LH at MOI 20, AF647-CD79b at 1 µg/ml; same gate on untransduced (UTD) cells 0.23.

Sequence of AF647-CD79b (P40259 29-159 limits assumed): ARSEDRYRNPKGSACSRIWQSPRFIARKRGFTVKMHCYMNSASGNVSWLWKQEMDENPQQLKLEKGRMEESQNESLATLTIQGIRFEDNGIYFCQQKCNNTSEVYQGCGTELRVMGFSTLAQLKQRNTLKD

“AF647-CD79b (from UniProt P40259 29-159)”: the % positive (CD79b CAR+ NK cells) in experiment [1] came to 85.2%; in experiment [2], 71.2%; in experiment [3], 67.1%; in experiment [4], 72.2%; in experiment [5], 47.4%; in experiment [6], 80.8%. The % positive (CD79b CAR+ NK cells) in experiment [7] is 69.9%; in experiment [8], 74.5%.

Values taken from US20230174651A1.
